Laboratory results: US20250340881A1, “PHARMACEUTICAL COMPOSITION FOR TREATING CANCER COMPRISING FOXM1 MUTANT OR FOXM1 SHRNA” (Industry-University Cooperation Foundation Hanyang …, priority 2022, published 2025)
Positions count from the first letter of the chain named. Numbers in names are those of the source.

B1: S25E: FoxM1 phosphorylated point mutant of the S25 residue, expressed by lentivirus in A549 cells (protein, listed as Homo sapiens)
chain: MKTSPRRPLILKRRRLPLPVQNAPEETSEEEPKRSPAQQESNQAEASKEVAESNSCKFPAGIKIINHPTMPNTQVVAIPNNANIHSIITALTAKGKESGSSGPNKFILISCGGAPTQPPGLRPQTQTSYDAKRTEVTLETLGPKPAARDVNLPRPPGALCEQKRETCDGEAAGCTINNSLSNIQWLRKMSSDGLGSRSIKQEMEEKENCHLEQRQVKVEEPSRPSASWQNSVSERPPYSYMAMIQFAINSTERKRMTLKDIYTWIEDHFPYFKHIAKPGWKNSIRHNLSLHDMFVRETSANGKVSFWTIHPSANRYLTLDQVFKQQQKRPNPELRRNMTIKTELPLGARRKMKPLLPRVSSYLVPIQFPVNQSLVLQPSVKVPLPLAASLMSSELARHSKRVRIAPKVLLAEEGIAPLSSAGPGKEEKLLFGEGFSPLLPVQTIKEEEIQPGEEMPHLARPIKVESPPLEEWPSPAPSFKEESSHSWEDSSQSPTPRPKKSYSGLRSPTRCVSEMLVIQHRERRERSRSRRKQHLLPPCVDEPELLFSEGPSTSRWAAELPFPADSSDPASQLSYSQEVGGPFKTPIKETLPISSTPSKSVLPRTPESWRLTPPAKVGGLDFSPVQTSQGASDPLPDPLGLMDLSTTPLQSAPPLESPQRLLSSEPLDLISVPFGNSSPSDIDVPKPGSPEPQVSGLAANRSLTEGLVLDTMNDSLSKILLDISFPGLDEDPLGPDNINWSQFIPELQ
B2: S25A: FoxM1 protein with Ser25 substituted with alanine, non-phosphorylated point mutant, expressed by lentivirus in A549 cells (protein)
chain: B1 chain with E25A
modifications: left off: a dimerising Fc or GST
notes: FoxM1 protein with Ser25 substituted with alanine, non-phosphorylated point mutant, expressed by lentivirus in A549 cells

Key:
A549 lung cancer cells = experiment: Wound healing assay of A549 cells expressing FoxM1 phosphorylated point mutants; format: cell-based; conditions: distance in the control group at 72 h set to 0%
Protocol: To observe the effects of phosphorylation point mutations on the motility of cancer cells, a wound healing assay was performed in lung cancer cells A549 expressing FoxM1 wild type (WT), phosphorylated point mutants S25E, S361E, and S715E, and a simultaneous triple-point mutation EEE protein.
Specifically, cells expressing the gene of FoxM1 point mutant by the lentivirus system were seeded into 6-well plates at 1×10^5 cells/well each. 24 hours after cell seeding, scratches were made at regular intervals using a 200 μl-pipette tip. In addition, A549 cells treated with mock as a negative control (Mock) and 5 ng/ml of TGF-β as a positive control were used. […] In addition, the distance in the control group at 72 h was set to 0%, and the relative distance was represented as a bar graph (FIG. 4G).

lung tissues = experiment: EMT marker and PD-L1 protein levels in lysed lung tissue of injected mice; format: in vivo
Protocol: Next, when the lung tissues were lysed and the protein levels of epithelial-mesenchymal transition markers were measured, the protein levels of the mesenchymal marker N-cadherin increased in the FoxM1 phosphorylated point mutant experimental group, while the levels of E-cadherin decreased. In addition, the expression of PD-L1, which was known to be involved in immune evasion and to enhance the tumorigenic potential of cancer cells, was also examined in each experimental group. […] Moreover, the consistent results were confirmed not only at the protein levels but also at the mRNA levels (FIG. 5E).

A549 cells [1] = experiment: M2d-inducing factor mRNA in A549 cells after co-culture with THP-1 cells; format: cell-based; conditions: co-culture with THP-1 48 hours
Protocol: (§1) In addition, after co-culturing of human monocyte THP-1 cells and cell groups over-expressing FoxM1 point mutations for 48 hours under the conditions where the previous experiments were performed, the mRNA expression levels of M2d-inducing factors IL4, IL6, IL10, and VEGFA in A549 cells expressing FoxM1 S25E were analyzed. […] The amounts of TGFB1 and VEGFA proteins in the medium cultured for 48 h with A549 cells (4×10^4 cells/ml) expressing FoxM1 variants were measured by ELISA.

A549 cells [2] = experiment: ELISA of TGFB1 and VEGFA proteins in A549 culture medium; format: cell-based; conditions: medium cultured 48 h
Protocol: as §1

A549 cells [3] = experiment: IL6, IL1A and CD274 mRNA in A549 cells co-cultured with Jurkat cells; format: cell-based; conditions: co-culture with Jurkat 48 h
[4] = system: A549 lung cancer cells expressing the FoxM1 phosphorylated point mutant protein; experiment: Migration assay of A549 cells over-expressing FoxM1 phosphorylated point mutant treated with peptides; format: cell-based; conditions: doxycycline 3 μg/ml, 48 hours, no peptide
Protocol: Moreover, to evaluate the effects and efficacy of the three peptides comprising the FoxM1 non-phosphorylation point mutation on the motility of cancer cells, the cell motility was measured by a migration assay (FIG. 8C). Specifically, 5×10^4 cells of A549 lung cancer cells expressing the FoxM1 phosphorylated point mutant protein were seeded into an 8.0 μm, 24-well insert. Culture medium containing 10% serum (FBS) was added to a 24-well plate, and then the insert was placed into the plate. 0.5 ml of RPMI 1640 (10% FBS) containing 3 μg/ml of doxycycline was dispensed into the plate, and each of the three kinds of 5 μM of FoxM1 non-phosphorylated point mutant peptides was simultaneously treated. […] After 5 minutes, the plate was washed with 1×PBS five times, and the stained intensity was measured using the Odyssey infrared imaging system. […]
Specifically, 5×10^4 cells of A549 lung cancer cells expressing the FoxM1 phosphorylated point mutant protein were seeded in an 8.0 μm, 24-well insert, and the inserts were placed in a 24-well plate after medium with 10% fetal bovine serum (FBS) was dispensed on the 24-well plate. […] After 5 minutes, the plate was washed with 1×PBS five times, and the stained intensity was measured using the Odyssey infrared imaging system. […]

THP-1 monocytes = experiment: PD-1 (CD279) mRNA in THP-1 monocytes co-cultured with A549 cells; format: cell-based, human; conditions: co-culture
Protocol: To examine the mRNA expression levels of PD-1 and PD-L1, which are involved in solid tumor immune evasion, in THP-1 cells and the cells expressing the FoxM1 phosphorylated point mutant, the expression of PD-1 (CD279) mRNA, an immune evasion factor, was measured by qRT-PCR in THP-1 monocytes co-cultured with A549^S25E cells for 48 h (FIG. 7B). It was observed that the expression of mRNA of PD-L1 (CD274), an immune evasion factor, increased by 2 folds in the A549^S25E cells expressing the phosphorylated point mutant compared to the control group.

| Molecule | relative healing distance (motility) at 72 h (A549 lung cancer cells) [%] | expression of PD-L1 in lung tissue (lung tissues) | protein level of E-cadherin in lung tissue (lung tissues) | protein level of N-cadherin in lung tissue (lung tissues) | mRNA expression level of IL4 in A549 cells (A549 cells [1]) [folds] | mRNA expression level of IL6 in A549 cells (A549 cells [1]) [folds] | mRNA expression level of IL10 in A549 cells (A549 cells [1]) [folds] | mRNA expression level of VEGFA in A549 cells (A549 cells [1]) [folds] | mRNA expression level, fifth value printed (factor not named) (A549 cells [1]) [folds] | amount of TGFB1 protein in medium, compared to Mock (A549 cells [2]) [folds] | amount of VEGFA protein in medium, compared to Mock (A549 cells [2]) [folds] | expression of IL6, ILIA and CD274 in A549 cells (in words) (A549 cells [3]) | mRNA expression of CD274 in A549 cells (A549 cells [3]) [folds] | mRNA expression of IL6 in A549 cells (A549 cells [3]) [folds] | mRNA expression of ILIA in A549 cells (A549 cells [3]) [folds] | stained intensity (migration) of over-expressed group compared to the control group [4] [folds] | expression of PD-1 mRNA (CD279) in THP-1 monocytes (THP-1 monocytes) |
| --- | --- | --- | --- | --- | --- | --- | --- | --- | --- | --- | --- | --- | --- | --- | --- | --- | --- |
| B1 | 43 | elevated | decreased | increased | 1.8 | 1.8 | 2.2 | 2.5 | 2.5 | 5 | 4 | significantly low expression | 5 | 3.5 | 4.5 | 5 |  |
| B2 |  |  |  |  |  |  |  |  |  |  |  |  |  |  |  |  | highest |
